± gives the standard deviation of the averaged measurements.
Columns and labels:
[1] = test system: VchCAST RNA-guided transposition machinery (E. coli BL21(DE3) host, lacZ target); assay: relative integration efficiency (T-RL orientation) vs wild-type transposon end (log2 (normalized fold change)); transposon end mutated: right end (5 bp flank + 75 bp right end); higher = more efficient transposition
Outline: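 Co-transformation of E. coli BL21(DE3) combined a pUC57 mini-transposon donor, holding barcoded pools of 1549 left-end or 1849 right-end variants, with a T7-driven plasmid encoding a CRISPR array, tniQ-cas8-cas7-cas6 and tnsA-tnsB-tnsC. After plating with 0.1 mM IPTG at 37°C for 18 h, input plasmids and genomic integration junctions were PCR-amplified and Illumina-sequenced across two biological output replicates, with four reference barcodes. Relative integration efficiency is the normalised, log-transformed output/input barcode fold change.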

[2] = test system: VchCAST RNA-guided transposition machinery (E. coli BL21(DE3) host, lacZ target); assay: relative integration efficiency (T-LR orientation) vs wild-type transposon end (log2 (normalized fold change)); transposon end mutated: right end (5 bp flank + 75 bp right end); higher = more efficient transposition
Protocol: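 Pooled, barcoded VchCAST (Tn6677) mini-transposon donor libraries; each variable transposon-end sequence sits in a fixed pDonor mini-transposon context (10-bp barcode and cargo not included). Left- or right-end libraries were co-transformed with pEffector (TniQ-Cascade, TnsABC, lacZ crRNA, T7, 0.1 mM IPTG) into E. coli BL21(DE3) and grown 18 h at 37 C. T-LR and T-RL junction amplicons were sequenced; output/input barcode fold change was normalised to the mean of four wild-type barcodes and log2-transformed. Two biological replicates; zero-count/undetected variants carry floor values (-10 / -15), censored here. Barcode uncoupling by PCR recombination adds noise.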

Row | Sequence | relative integration efficiency (log2) [1] | relative integration efficiency (log2) [2]
1 | ACATTAGTGGATACAACCATAAAATGATAATTACACCCATAAATGGATAATTATCACACCCAATTTAACTATAACGCTCTGATCATAGTCAGACCAACATTGCTACGACCCGTATTCGCACCGACAC | -7.08 ± 1.1 | -5.46 ± 0.48
2 | ACATTAGTGGATACAACCATAAAATGATAATTACACCCATAAATTCATAATTATCACACCCAATTTAACTATAACGCTCTGATCATAGTCAGACCAACATTGCTACGACCCGTATTCGCACCGACAC | -7.6 ± 0.5 | -5.23 ± 1.8
3 | ACATTAGTGGATACAACCATAAAATGATAATTACACCCATAAATTCATCATTATCACACCCAATTTAACTATAACGCTCTGATCATAGTCAGACCAACATTGCTACGACCCGTATTCGCACCGACAC | -7.21 ± 0.51 | -4.73 ± 0.58
4 | ACATTAGTGGATACAACCATAAAATGATAATTACACCCATAAATTGATAATTATCACACCCAATTTAACTATAACGCTCTGATCATAGTCAGACCAACATTGCTACGACCCGTATTCGCACCGACAC | -5.98 ± 0.27 | -3.09 ± 0.75
5 | ACATTAGTGGATACAACCATAAAATGATAATTACACCCATAAATTGATCATTATCACACCCAATTTAACTATAACGCTCTGATCATAGTCAGACCAACATTGCTACGACCCGTATTCGCACCGACAC | -7.5 ± 0.15 | -5.22 ± 1.2
6 | ACATTAGTTCATACAACCATAAAATGATAATTACACCCATAAATGGATAATTATCACACCCAATTTAACTATAACGCTCTGATCATAGTCAGACCAACATTGCTACGACCCGTATTCGCACCGACAC | -6.74 ± 0.15 | -3.62 ± 0.12
7 | ACATTAGTTCATACAACCATAAAATGATAATTACACCCATAAATGGATCATTATCACACCCAATTTAACTATAACGCTCTGATCATAGTCAGACCAACATTGCTACGACCCGTATTCGCACCGACAC | -7.359 ± 0.025 | -7.73 ± 1.7
8 | ACATTAGTTCATACAACCATAAAATGATAATTACACCCATAAATTCATCATTATCACACCCAATTTAACTATAACGCTCTGATCATAGTCAGACCAACATTGCTACGACCCGTATTCGCACCGACAC | -7.69 ± 0.13 | -5.32 ± 0.75
9 | ACATTAGTTGATACAACCATAAAATGATAATTACACCCATAAATGGATAATTATCACACCCAATTTAACTATAACGCTCTGATCATAGTCAGACCAACATTGCTACGACCCGTATTCGCACCGACAC | -6.45 ± 0.32 | -4.68 ± 1.3
10 | ACATTAGTTGATACAACCATAAAATGATAATTACACCCATAAATGGATCATTATCACACCCAATTTAACTATAACGCTCTGATCATAGTCAGACCAACATTGCTACGACCCGTATTCGCACCGACAC | -6.02 ± 0.2 | -4.72 ± 0.67
11 | ACATTAGTTGATACAACCATAAAATGATAATTACACCCATAAATTCATAATTATCACACCCAATTTAACTATAACGCTCTGATCATAGTCAGACCAACATTGCTACGACCCGTATTCGCACCGACAC | -6.87 ± 0.4 | -4.45 ± 0.066
12 | ACATTAGTTGATACAACCATAAAATGATAATTACACCCATAAATTCATCATTATCACACCCAATTTAACTATAACGCTCTGATCATAGTCAGACCAACATTGCTACGACCCGTATTCGCACCGACAC | -7.83 ± 0.12 | -4.99 ± 0.51
13 | ACATTAGTTGATACAACCATAAAATGATAATTACACCCATAAATTGATCATTATCACACCCAATTTAACTATAACGCTCTGATCATAGTCAGACCAACATTGCTACGACCCGTATTCGCACCGACAC | -7.38 ± 0.13 | -5.7 ± 0.14
14 | ACATTGGTCGATACAACCATAAAATGATAATTACACCCATAAATTCATAATTATCACACCCAATTTAACTATAACGCTCTGATCATAGTCAGACCAACATTGCTACGACCCGTATTCGCACCGACAC | -7.939 ± 0.019 | -7.44 ± 1.2
15 | ACATTGGTCGATACAACCATAAAATGATAATTACACCCATAAATTCATCATTATCACACCCAATTTAACTATAACGCTCTGATCATAGTCAGACCAACATTGCTACGACCCGTATTCGCACCGACAC | -7.035 ± 0.062 | -5.19 ± 1.2
16 | ACATTGGTCGATACAACCATAAAATGATAATTACACCCATAAATTGATAATTATCACACCCAATTTAACTATAACGCTCTGATCATAGTCAGACCAACATTGCTACGACCCGTATTCGCACCGACAC | -7.79 ± 0.62 | -5.26 ± 0.85
17 | ACATTGGTCGATACAACCATAAAATGATAATTACACCCATAAATTGATCATTATCACACCCAATTTAACTATAACGCTCTGATCATAGTCAGACCAACATTGCTACGACCCGTATTCGCACCGACAC | -7.023 ± 0.019 | -5.922 ± 0.042

Row | Sequence | relative integration efficiency (log2) [1] | relative integration efficiency (log2) [2]
18 | ACATTGGTGGATACAACCATAAAATGATAATTACACCCATAAATGGATAATTATCACACCCAATTTAACTATAACGCTCTGATCATAGTCAGACCAACATTGCTACGACCCGTATTCGCACCGACAC | -7.53 ± 0.13 | -5.04 ± 0.46
19 | ACATTGGTGGATACAACCATAAAATGATAATTACACCCATAAATGGATCATTATCACACCCAATTTAACTATAACGCTCTGATCATAGTCAGACCAACATTGCTACGACCCGTATTCGCACCGACAC | -7.25 ± 0.2 | -6.75 ± 1
20 | ACATTGGTGGATACAACCATAAAATGATAATTACACCCATAAATTCATAATTATCACACCCAATTTAACTATAACGCTCTGATCATAGTCAGACCAACATTGCTACGACCCGTATTCGCACCGACAC | -6.19 ± 0.92 | -4.36 ± 0.31
21 | ACATTGGTGGATACAACCATAAAATGATAATTACACCCATAAATTCATCATTATCACACCCAATTTAACTATAACGCTCTGATCATAGTCAGACCAACATTGCTACGACCCGTATTCGCACCGACAC | -7.11 ± 0.38 | -4.79 ± 0.16
22 | ACATTGGTGGATACAACCATAAAATGATAATTACACCCATAAATTGATCATTATCACACCCAATTTAACTATAACGCTCTGATCATAGTCAGACCAACATTGCTACGACCCGTATTCGCACCGACAC | -6.97 ± 0.42 | -6.549 ± 0.042
23 | ACATTGGTTCATACAACCATAAAATGATAATTACACCCATAAATGGATAATTATCACACCCAATTTAACTATAACGCTCTGATCATAGTCAGACCAACATTGCTACGACCCGTATTCGCACCGACAC | -7.74 ± 0.3 | -5.92 ± 3.5
24 | ACATTGGTTCATACAACCATAAAATGATAATTACACCCATAAATTCATAATTATCACACCCAATTTAACTATAACGCTCTGATCATAGTCAGACCAACATTGCTACGACCCGTATTCGCACCGACAC | -6.669 ± 0.029 | -6.28 ± 2.6
25 | ACATTGGTTCATACAACCATAAAATGATAATTACACCCATAAATTCATCATTATCACACCCAATTTAACTATAACGCTCTGATCATAGTCAGACCAACATTGCTACGACCCGTATTCGCACCGACAC | -7.13 ± 0.28 | -6.18 ± 1.9
26 | ACATTGGTTCATACAACCATAAAATGATAATTACACCCATAAATTGATAATTATCACACCCAATTTAACTATAACGCTCTGATCATAGTCAGACCAACATTGCTACGACCCGTATTCGCACCGACAC | -7.42 ± 0.14 | -4.38 ± 1.6
27 | ACATTGGTTGATACAACCATAAAATGATAATTACACCCATAAATGGATAATTATCACACCCAATTTAACTATAACGCTCTGATCATAGTCAGACCAACATTGCTACGACCCGTATTCGCACCGACAC | -7.99 ± 0.69 | -5.61 ± 0.44
28 | ACATTGGTTGATACAACCATAAAATGATAATTACACCCATAAATGGATCATTATCACACCCAATTTAACTATAACGCTCTGATCATAGTCAGACCAACATTGCTACGACCCGTATTCGCACCGACAC | -7.55 ± 0.43 | -5.25 ± 0.34
29 | ACATTGGTTGATACAACCATAAAATGATAATTACACCCATAAATTCATAATTATCACACCCAATTTAACTATAACGCTCTGATCATAGTCAGACCAACATTGCTACGACCCGTATTCGCACCGACAC | -6.39 ± 0.064 | -5.532 ± 0.042
30 | ACATTGGTTGATACAACCATAAAATGATAATTACACCCATAAATTCATCATTATCACACCCAATTTAACTATAACGCTCTGATCATAGTCAGACCAACATTGCTACGACCCGTATTCGCACCGACAC | -7.43 ± 0.34 | -5.884 ± 0.042
31 | ACATTGGTTGATACAACCATAAAATGATAATTACACCCATAAATTGATCATTATCACACCCAATTTAACTATAACGCTCTGATCATAGTCAGACCAACATTGCTACGACCCGTATTCGCACCGACAC | -7.17 ± 0.13 | -6.54 ± 2
32 | ACATTGTTTGATACAACCATAAAATGATAATTACACCCATAAATTGATAATTATCACACCCATAAATTGATATTGCCTCTGATCATAGTCAGACCAACATTGCTACGACCCGTATTCGCACCGACAC | -6.33 ± 0.24 | -4.94 ± 0.3
33 | ACATTTCATGATACAACCATAAAATGATAATTACACCCATAAATTGATAATTATCACACCCATAAATTGATATTGCCTCTGATCATAGTCAGACCAACATTGCTACGACCCGTATTCGCACCGACAC | -4.85 ± 0.79 | -5.68 ± 0.91
34 | ACATTTCTCGATACAACCATAAAATGATAATTACACCCATAAATGGATAATTATCACACCCAATTTAACTATAACGCTCTGATCATAGTCAGACCAACATTGCTACGACCCGTATTCGCACCGACAC | -1.99 ± 0.23 | 0.276 ± 0.061

From the supplement of paper PMC10201428
